Target: PA (residues 1-716) of influenza A virus RNA-dependent RNA-polymerase (influenza A virus …, UniProt P31343 1-716)
Assay: SEC-SAXS
Settings: both partners purified

B1: PB1(1-686) of influenza A virus RNA-dependent RNA-polymerase (domain or fragment)
chain: MDVNPTLLFLKVPAQNAISTTFPYTGDPPYSHGTGTGYTMDTVNRTHQYSEKGKWTTNTETGAAQLNPIDGPLPEDNEPSGYAQTDCVLEAMAFLEESHPGIFENSCLETMEVVQQTRVDRLTQGRQTYDWTLNRNQPAATALANTIEVFRSNGLIANESGRLIDFLKDVIESMDKEEMEITTHFQRKRRVRDNMTKKMVTQRTIGKKKQRVNKRSYLIRALTLNTMTKDAERGKLKRRAIATPGMQIRGFVYFVETLARSICEKLEQSGLPVGGNEKKAKLANVVRKMMTNSQDTELSFTITGDNTKWNENQNPRMFLAMITYITKNQPEWFRNILSIAPIMFSNKMARLGKGYMFESKRMKLRTQIPAEMLASIDLKYFNESTRKKIEKIRPLLIDGTASLSPGMMMGMFNMLSTVLGVSILNLGQKKYTKTTYWWDGLQSSDDFALIVNAPNHEGIQAGVDRFYRTCKLVGINMSKKKSYINRTGTFEFTSFFYRYGFVANFSMELPSFGVSGINESADMSIGVTVIKNNMINNDLGPATAQMALQLFIKDYRYTYRCHRGDTQIQTRRSFELKKLWEQTRSKAGLLVSDGGPNLYNIRNLHIPEVCLKWELMDEDYQGRLCNPLNPFVSHKEIESVNNAVVMPAHGPAKSMEYDAVATTHSWIPKRNRSILNTSQRGILEDE
  stoichiometry N: 1

Reference: PMC4837377 (Scientific Reports, 2016)
